Data from paper PMC11818384, “Structural Characteristics and Properties of the RNA-Binding Protein hnRNPK at Multiple Physical States” (International Journal of Molecular Sciences, 2025).
“And” between values parts separate entries of the source, which are not always exact repeats. Equal entries are not always repeated.

Assays:
[1] = molecular target: the molecule itself; assay: SEC-MALS; SEC-LS (RALS, RI, UV) on Superdex 200 Increase 10/300 at room temperature; hnRNPK sample incubated at room temperature
[2] = molecular target: the molecule itself; assay: SEC-MALS; SEC-LS (RALS, RI, UV) on Superdex 200 Increase 10/300 run at room temperature; hnRNPK sample kept at 4 °C (vial holder at 4 °C), low concentration

B1: Heterogeneous nuclear ribonucleoprotein K (hnRNPK), full-length wild type with an additional N-terminal glycine (natural protein)
chain: not shown
notes: additional glycine residue at the N-terminus, told in words; heterogeneous nuclear ribonucleoprotein K, full-length wild type; theoretical molar mass with the extra glycine 51,033 Da; also called H-hnRNPK; hydrogenated hnRNPK; source: E. coli Rosetta2 (DE3), purified (Ni Hi-trap, TEV cleavage, second Hi-trap, Superdex 200); not shown: His6, N-terminal, cleaved; eGFP, N-terminal, cleaved
stoichiometry N [1]: 2.88 hnRNPK molecules per particle (measured MM : theoretical MM) and 1.53 hnRNPK molecules per particle (measured MM : theoretical MM) | stoichiometry N [2]: 1.98 hnRNPK molecules per particle (measured MM : theoretical MM)
